Measured values: US20080199514A1 (BURNHAM INSTITUTE, published 2008)

T1: Lck phosphopeptide (ARLIEDNEpYTAAREG)
T1 chain: ARLIEDNEYTAAREG


Key:
GST tag alone = molecular target: T2, GST tag alone (UniProt P08515 1-218 = GST); assay: GST pull-down with glutathione-agarose from E. coli BL21 lysates, S-protein-HRP blot
T2 construct: Negative control of the pull-down; also called GST alone
Method: The s-tagged constructs were prepared using pET-30, (Novagen, San Diego, Calif. 92121), however, other vector systems can be used. […] The constructs were equally expressed using E. coli BL21. Either a GST-Tagged SH3 domain of Csk or a GST tag alone was co-expressed with the LYP fragment constructs. A glutathione-agarose bead was added to each of the BL21 lysates. Precipitated proteins were separated by gel-electrophoresis and transferred to a nitrocellulose filter. The filters were incubated with S-protein HRP and ECL reagent to allow for chemiluminescent detection of Csk bound LYP. […] None of the constructs precipitated when co-expressed with GST alone. In this example, bound material was detected using S-protein-horseradish peroxidase.

[1] = molecular target: T3, endogenous Csk from Jurkat T cells (UniProt P41240 2-450, limits assumed); assay: S-tag pull-down from Jurkat T cell lysate, anti-Csk blot
T3 construct: mature; Native protein in the cell lysate
Method: Jurkat T cells, which endogenously express Csk, were lysed and the protein lysate was subjected to a pull down assay using S-tagged LYP either having R620 or having W620. A blot was performed and detection was carried out using an anti-Csk primary antibody in a two-stage detection system.

[2] = molecular target: T1, Lck phosphopeptide (ARLIEDNEpYTAAREG)

T2 sequence (P08515 whole entry): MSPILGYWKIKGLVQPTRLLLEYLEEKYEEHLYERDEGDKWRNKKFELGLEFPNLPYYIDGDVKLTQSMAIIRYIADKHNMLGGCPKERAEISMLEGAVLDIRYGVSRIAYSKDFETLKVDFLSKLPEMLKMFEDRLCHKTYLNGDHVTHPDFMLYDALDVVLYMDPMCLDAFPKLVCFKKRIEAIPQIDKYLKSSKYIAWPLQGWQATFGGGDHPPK
T3 sequence (P41240 2-450 limits assumed): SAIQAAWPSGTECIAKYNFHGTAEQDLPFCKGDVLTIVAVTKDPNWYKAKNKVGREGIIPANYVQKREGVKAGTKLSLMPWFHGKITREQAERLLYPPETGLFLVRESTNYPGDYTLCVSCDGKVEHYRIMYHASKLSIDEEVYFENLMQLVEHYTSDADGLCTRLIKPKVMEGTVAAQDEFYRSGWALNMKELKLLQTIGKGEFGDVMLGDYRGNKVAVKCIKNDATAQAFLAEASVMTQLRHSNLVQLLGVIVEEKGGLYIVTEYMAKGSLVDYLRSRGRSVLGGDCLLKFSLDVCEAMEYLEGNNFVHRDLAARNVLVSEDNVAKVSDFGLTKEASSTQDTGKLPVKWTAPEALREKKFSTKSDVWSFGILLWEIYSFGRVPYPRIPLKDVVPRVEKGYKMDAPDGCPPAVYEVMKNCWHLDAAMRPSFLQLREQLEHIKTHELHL

| binding result (GST tag alone) | binding result [1] | Binder | Dephosphorylation of an Lck phosphopeptide by immunoprecipitated HA-tagged LYP [2] |
| --- | --- | --- | --- |
| no binding | – | S-tagged LYP polypeptide corresponding to amino acid residues 603-710 with arginine at position 620 (other, human, UniProt Q9Y2R2 603-710, looked up, Expressed in E. coli BL21; also called Construct 1; not shown: S-tag and other vector-derived residues from pET-30 (Novagen)) LATAPRIDDEIPPPLPVRTPESFIVVEEAGEFSPNVPKSLSSAVKVKIGTSLEWGGTSEPKKFDDSVILRPSKSVKLRSPKSELHQDRSSPPPPLPERTLESFFLADE | – |
| no binding | no binding | S-tagged LYP polypeptide corresponding to amino acid residues 603-710 with tryptophan at position 620 (other, human, UniProt Q9Y2R2 603-710, looked up, Expressed in E. coli BL21; also called Construct 2; not shown: S-tag and other vector-derived residues from pET-30 (Novagen)) LATAPRIDDEIPPPLPVWTPESFIVVEEAGEFSPNVPKSLSSAVKVKIGTSLEWGGTSEPKKFDDSVILRPSKSVKLRSPKSELHQDRSSPPPPLPERTLESFFLADE | – |
| – | – | full length Hemagglutinin (HA) tagged LYP having R620 (protein) MDQREILQKFLDEAQSKKITKEEFANEFLKLKRQSTKYKADKTYPTTVAEKPKNIKKNRYKDILPYDYSRVELSLITSDEDSSYINANFIKGVYGPKAYIATQGPLSTTLLDFWRMIWEYSVLIIVMACMEYEMGKKKCERYWAEPGEMQLEFGPFSVSCEAEKRKSDYIIRTLKVKFNSETRTIYQFHYKNWPDHDVPSSIDPILELIWDVRCYQEDDSVPICIHCSAGCGRTGVICAIDYTWMLLKDGIIPENFSVFSLIREMRTQRPSLVQTQEQYELVYNAVLELFKRQMDVIRDKHSGTESQAKHCIPEKNHTLQADSYSPNLPKSTTKAAKMMNQQRTKMEIKESSSFDFRTSEISAKEELVLHPAKSSTSFDFLELNYSFDKNADTTMKWQTKAFPIVGEPLQKHQSLDLGSLLFEGCSNSKPVNAAGRYFNSKVPITRTKSTPFELIQQRETKEVDSKENFSYLESQPHDSCFVEMQAQKVMHVSSAELNYSLPYDSKHQIRNASNVKHHDSSALGVYSYIPLVENPYFSSWPPSGTSSKMSLDLPEKQDGTVFPSSLLPTSSTSLFSYYNSHDSLSLNSPTNISSLLNQESAVLATAPRIDDEIPPPLPVRTPESFIVVEEAGEFSPNVPKSLSSAVKVKIGTSLEWGGTSEPKKFDDSVILRPSKSVKLRSPKSELHQDRSSPPPPLPERTLESFFLADEDCMQAQSIETYSTSYPDTMENSTSSKQTLKTPGKSFTRSKSLKILRNMKKSICNSCPPNKPAESVQSNNSSSFLNFGFANRFSKPKGPRNPPPTWNI | Immunoprecipitated LYP*R620 dephosphorylated 6.312±1.596 pmoles of substrate/min/106 transfected cells (n=5) |
